For test [1], the target named is T1, IL-23-AVI (human, UniProt Q9NPF7 20-189; P29460 23-328).
T1 construct: IL-23 p19 subunit, human; IL-12/IL-23 p40 subunit, human; Captured on streptavidin chips and beads, so biotinylation of the Avi tag is implied; also called Avi-tagged IL-23; recombinant IL-23
T1 sequence (looked up) 1: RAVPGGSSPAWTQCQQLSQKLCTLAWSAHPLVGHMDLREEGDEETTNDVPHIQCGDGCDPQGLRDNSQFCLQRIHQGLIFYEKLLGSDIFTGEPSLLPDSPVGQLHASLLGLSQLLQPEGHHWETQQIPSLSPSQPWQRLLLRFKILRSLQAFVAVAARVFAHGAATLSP
T1 sequence (looked up) 2: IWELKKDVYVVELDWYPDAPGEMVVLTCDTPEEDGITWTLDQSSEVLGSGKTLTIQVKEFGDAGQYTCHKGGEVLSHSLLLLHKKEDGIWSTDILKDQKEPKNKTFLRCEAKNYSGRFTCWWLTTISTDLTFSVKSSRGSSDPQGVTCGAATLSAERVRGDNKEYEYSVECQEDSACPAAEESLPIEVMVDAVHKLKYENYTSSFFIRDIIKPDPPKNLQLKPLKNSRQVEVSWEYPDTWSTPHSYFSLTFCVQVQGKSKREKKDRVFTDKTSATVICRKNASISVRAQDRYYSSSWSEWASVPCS
In words: AlphaScreen or HTRF; TR-FRET; compounds pre-incubated with IL-23R-FLAG 1 h, then IL-23-AVI; Europium-streptavidin and anti-FLAG-allophycocyanin; 25 mM HEPES, 150 mM NaCl, 0.02% Tween 20, 0.1% BSA, pH 7.4, 1% DMSO; n = 1. The settings on record: both partners purified.

Test [2] deals with T1, IL-23-AVI. Put plainly: AlphaScreen or HTRF; AlphaLISA; IL-23-AVI (1.5 nM) pre-incubated with peptide 30 min, then FLAG-tagged IL-23R (3 nM); streptavidin donor and anti-FLAG acceptor beads; 25 mM HEPES pH 7.4, 150 mM NaCl, 0.02% Tween 20, 0.1% BSA; room temperature; n = 1. Particulars: both partners purified.
The target of test [3] is T1, IL-23-AVI. Put plainly: SPR; Biacore T200, 25°C, 50 μl/min; 2000–9000 RU of IL-23-AVI captured to streptavidin chip, peptides as analyte (3-fold series, up to 30 μM); 10 mM HEPES pH 7.5, 150 mM NaCl, 0.005% P20, 3% DMSO; multi-cycle, single cycle kinetics for 23–652; 1:1 model; n = 1. Particulars: both partners purified.
The target in a further test is T2, IL-23-HIS (human, UniProt Q9NPF7 20-189; P29460 23-328).
T2 construct: IL-23 p19 subunit, human; IL-12/IL-23 p40 subunit, human; also called IL-23 only; IL-23 protein
T2 sequence (looked up) 1: T1 sequence (looked up) 1
T2 sequence (looked up) 2: T1 sequence (looked up) 2
In words: SPR; competition SPR, 25°C; IL-23R-Fc-AVI (<1000 RU) captured on Protein-A; 20 nM IL-23 mixed with one concentration of peptide or cold IL-23R injected 30 s; 10 mM HEPES pH 7.5, 150 mM NaCl, 0.005% P20, 1% BSA; n = 1. The settings on record: both partners purified.

In test [4] the target is T3, Fluorescently labeled IL-23R, Q5VWK5.
T3 chain: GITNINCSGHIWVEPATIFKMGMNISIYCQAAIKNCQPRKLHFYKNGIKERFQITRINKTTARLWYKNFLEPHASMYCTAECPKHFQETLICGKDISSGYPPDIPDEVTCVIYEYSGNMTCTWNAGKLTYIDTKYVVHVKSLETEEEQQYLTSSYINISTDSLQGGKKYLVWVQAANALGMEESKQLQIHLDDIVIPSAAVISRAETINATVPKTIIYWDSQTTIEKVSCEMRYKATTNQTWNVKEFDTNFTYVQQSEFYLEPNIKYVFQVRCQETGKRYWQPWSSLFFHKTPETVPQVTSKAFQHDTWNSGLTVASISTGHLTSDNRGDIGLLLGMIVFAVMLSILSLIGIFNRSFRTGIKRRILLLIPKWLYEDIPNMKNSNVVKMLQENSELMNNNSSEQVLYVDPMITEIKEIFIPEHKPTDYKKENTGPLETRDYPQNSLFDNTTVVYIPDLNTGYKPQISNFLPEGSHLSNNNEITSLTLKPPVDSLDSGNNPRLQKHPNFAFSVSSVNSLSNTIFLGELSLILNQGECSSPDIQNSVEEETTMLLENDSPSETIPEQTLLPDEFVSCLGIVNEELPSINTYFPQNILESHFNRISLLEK
In words: flow cytometry on yeast-displayed IL-23. The settings on record: chain shown with the change; n = 1; parent: est. 1.05; read off a plot.

Test [5] addresses T1, IL-23-AVI. Put plainly: SPR; Biacore T200, 25°C; 200–1000 RU of IL-23-AVI captured to streptavidin chip, IL-23R-FLAG-HIS as analyte, single cycle kinetics; 1:1 model. Particulars: both partners purified.

Residue numbers refer to the chain shown, from its start. Names may count otherwise. Ends that are not written are not given here.

B1: peptide 23–446 (free, chemically synthesized) (peptide)
peptide: GLRERCVRNYGHEFCQNWYW
notes: selected from a peptide phage library against IL-23; Two cysteines; source: synthetic peptide (CPC Scientific)
B1 returned a 50% inhibitory concentration (IC50) in the test with IL-23-AVI [1] of 0.59 µM. Further, it took 0.24 µM to reach half-maximal inhibition with IL-23-AVI [2] (IC50). In the test with IL-23-AVI [3], this molecule yielded a Kd of 0.0223 µM, a koff of 0.0863 s⁻¹ and a kon of 3.88e+06 M⁻¹ s⁻¹.

B2: peptide 23–437 (free, chemically synthesized) (peptide)
peptide: FTKEIDSWWLSLMSS
notes: selected from a peptide phage library against IL-23; No cysteines, 15 residues; source: synthetic peptide (CPC Scientific)
For B2, the “% inhibition of IL-23 binding to immobilised IL-23R (peptide at 30 μM)” value (“% inhibition of IL-23 binding” below) with IL-23-HIS worked out at 57.6%. Further, the concentration for half-maximal inhibition (IC50) with IL-23-AVI [1] was 7 µM. In the test with IL-23-AVI [2], the IC50 turned out to be 1.4 µM. In the test with IL-23-AVI [3], this molecule had a Kd of 10.5 µM, an off-rate (koff) of 1.86 s⁻¹ and a kon of 178000 M⁻¹ s⁻¹.

B3: peptide 23–447 (free, chemically synthesized) (peptide)
peptide: LECLYYLRWKVCDN
modifications: not fully specified (bridges); cysteine pairing not given here
notes: as for B1
As to B3, the “% inhibition of IL-23 binding” value in the test with IL-23-HIS came to 78.7%. Besides, in the test with IL-23-AVI [1], 24 µM corresponded to half-maximal inhibition (IC50). The molecule also had an IC50 in the test with IL-23-AVI [2] of 6.7 µM. In the test with IL-23-AVI [3], this molecule yielded a Kd of around 27.5 µM, a koff of around 1.33 s⁻¹ and a kon of around 48300 M⁻¹ s⁻¹.

B4: wild-type IL-23 displayed on yeast, Q9NPF7;P29460 K145A (protein)
chain 1: T1 sequence (looked up) 1 with K145A
chain 2: T1 sequence (looked up) 2
Regarding B4, the ratio to parent in test [4] amounted to 0.18.

B5: wild-type IL-23 displayed on yeast, Q9NPF7;P29460 L141A (protein)
chain 1: T1 sequence (looked up) 1 with L141A
chain 2: T1 sequence (looked up) 2
As to B5, in test [4], the ratio to parent was found to be 0.1.

B6: wild-type IL-23 displayed on yeast, Q9NPF7;P29460 W137A (protein)
chain 1: T1 sequence (looked up) 1 with W137A
chain 2: T1 sequence (looked up) 2
On to B6, for which the ratio to parent in test [4] worked out at 0.1.

B7: peptide 23–441 (free, chemically synthesized) (peptide)
peptide: QKITQCVYIIWTYPCLLNDV
notes: as for B1
Take B7: the “% inhibition of IL-23 binding” value with IL-23-HIS is 100%. Moreover, half-maximal inhibition in the test with IL-23-AVI [1] (IC50) was put at 5.7 µM. In the test with IL-23-AVI [2], this molecule gave an IC50 of 2.5 µM. In the test with IL-23-AVI [3], this molecule showed a Kd of 0.911 µM, a koff of 0.174 s⁻¹ and a kon of 190000 M⁻¹ s⁻¹.

B8: IL-23R-FLAG-HIS (receptor)
chain: GITNINCSGHIWVEPATIFKMGMNISIYCQAAIKNCQPRKLHFYKNGIKERFQITRINKTTARLWYKNFLEPHASMYCTAECPKHFQETLICGKDISSGYPPDIPDEVTCVIYEYSGNMTCTWNAGKLTYIDTKYVVHVKSLETEEEQQYLTSSYINISTDSLQGGKKYLVWVQAANALGMEESKQLQIHLDDIVIPSAAVISRAETINATVPKTIIYWDSQTTIEKVSCEMRYKATTNQTWNVKEFDTNFTYVQQSEFYLEPNIKYVFQVRCQETGKRYWQPWSSLFFHKTPETVPQVTSKAFQHDTWNSGLTVASISTGHLTSDNRGDIG
modifications: Soluble monomeric ectodomain, FLAG and His tags left out. Limits are not printed in the main text (constructs are in S1 Table of the supplement), so the mature extracellular domain from UniProt …
In the test with IL-23-AVI [5], B8 had a Kd of 0.00892 µM, a koff of 0.00151 s⁻¹ and a kon of 170000 M⁻¹ s⁻¹.
